Publication PMC8497506, “Modular fluorescent nanoparticle DNA probes for detection of peptides and proteins”

Columns and labels:
[1] = target: T1, HHH peptide (synthetic); assay: plate binding assay (ELONA); EC50, FluoSphere probe; 10 mM HEPES, 1.2 mM NaCl (so in the source), 5 mM MgCl2, 5 mM KCl, pH 7.4, 0.1% Tween-20, 1% sheared salmon sperm DNA, 300 uM dextran sulfate; 60 min; temperature not stated; settings: tags: N-terminal Cys-biotin-PEG2; label: fluorescent FluoSphere; 24 bp duplex of strand 1 5' end with handle; rest single-stranded aptamer
T1 chain: GHHHG

[2] = target: T2, Her2-his (UniProt P04626 23-652); assay: plate binding assay (ELONA); EC50, FluoSphere probe, avidity; 10 mM HEPES, 1.2 mM NaCl (so in the source), 5 mM MgCl2, 5 mM KCl, pH 7.4, 0.1% Tween-20, 1% sheared salmon sperm DNA, 300 uM dextran sulfate; 60 min; temperature not stated; settings: protein: commercial; tags: His tag; label: fluorescent FluoSphere; 24 bp duplex of strand 1 5' end with handle; rest single-stranded aptamer
[3] = target: T1, HHH peptide; assay: plate binding assay (ELONA); EC50, Streptavidin APC; 10 mM HEPES, 1.2 mM NaCl (so in the source), 5 mM MgCl2, 5 mM KCl, pH 7.4, 0.1% Tween-20, 1% sheared salmon sperm DNA, 300 uM dextran sulfate; 60 min; temperature not stated; settings: tags: N-terminal Cys-biotin-PEG2; label: streptavidin conjugates or HRP
[4] = target: T1, HHH peptide; assay: plate binding assay (ELONA); EC50, Streptavidin SureLight APC; 10 mM HEPES, 1.2 mM NaCl (so in the source), 5 mM MgCl2, 5 mM KCl, pH 7.4, 0.1% Tween-20, 1% sheared salmon sperm DNA, 300 uM dextran sulfate; 60 min; temperature not stated; settings: tags: N-terminal Cys-biotin-PEG2; label: streptavidin conjugates or HRP
[5] = target: T1, HHH peptide; assay: plate binding assay (ELONA); EC50, Streptavidin AlexaFluor 647; 10 mM HEPES, 1.2 mM NaCl (so in the source), 5 mM MgCl2, 5 mM KCl, pH 7.4, 0.1% Tween-20, 1% sheared salmon sperm DNA, 300 uM dextran sulfate; 60 min; temperature not stated; settings: tags: N-terminal Cys-biotin-PEG2; label: streptavidin conjugates or HRP
[6] = target: T1, HHH peptide; assay: plate binding assay (ELONA); streptavidin conjugate; Fig. S4B legend calls it EC50; 10 mM HEPES, 1.2 mM NaCl (so in the source), 5 mM MgCl2, 5 mM KCl, pH 7.4, 0.1% Tween-20, 1% sheared salmon sperm DNA, 300 uM dextran sulfate; 60 min; temperature not stated; settings: tags: N-terminal Cys-biotin-PEG2; label: streptavidin conjugates or HRP
[7] = target: T1, HHH peptide; assay: plate binding assay (ELONA); 10 mM HEPES, 1.2 mM NaCl (so in the source), 5 mM MgCl2, 5 mM KCl, pH 7.4, 0.1% Tween-20, 1% sheared salmon sperm DNA, 300 uM dextran sulfate; 60 min; temperature not stated; settings: tags: N-terminal Cys-biotin-PEG2; label: fluorescent FluoSphere; 24 bp duplex of strand 1 5' end with handle; rest single-stranded aptamer
[8] = target: T1, HHH peptide; assay: plate binding assay (ELONA); EC50, streptavidin conjugate; 10 mM HEPES, 1.2 mM NaCl (so in the source), 5 mM MgCl2, 5 mM KCl, pH 7.4, 0.1% Tween-20, 1% sheared salmon sperm DNA, 300 uM dextran sulfate; 60 min; temperature not stated; settings: tags: N-terminal Cys-biotin-PEG2; label: streptavidin conjugate
[9] = target: Myoglobin (UniProt P68082 2-154); assay: plate binding assay (ELONA); off-target; 10 mM HEPES, 1.2 mM NaCl (so in the source), 5 mM MgCl2, 5 mM KCl, pH 7.4, 0.1% Tween-20, 1% sheared salmon sperm DNA, 300 uM dextran sulfate; 60 min; temperature not stated; settings: protein: commercial; label: fluorescent FluoSphere; 24 bp duplex of strand 1 5' end with handle; rest single-stranded aptamer
[10] = target: VEGF (UniProt P15692-4 27-191); assay: plate binding assay (ELONA); EC50, FluoSphere probe; 10 mM HEPES, 1.2 mM NaCl (so in the source), 5 mM MgCl2, 5 mM KCl, pH 7.4, 0.1% Tween-20, 1% sheared salmon sperm DNA, 300 uM dextran sulfate; 60 min; temperature not stated; settings: protein: commercial; chain copies: 2; label: fluorescent FluoSphere; 24 bp duplex of strand 1 5' end with handle; rest single-stranded aptamer
[11] = target: T2, Her2-his; assay: plate binding assay (ELONA); about twofold lower than pre-annealed probe; 10 mM HEPES, 1.2 mM NaCl (so in the source), 5 mM MgCl2, 5 mM KCl, pH 7.4, 0.1% Tween-20, 1% sheared salmon sperm DNA, 300 uM dextran sulfate; 60 min; temperature not stated; settings: protein: commercial; tags: His tag; label: fluorescent FluoSphere
[12] = target: T2, Her2-his; assay: plate binding assay (ELONA); EC50, Qdot core; 10 mM HEPES, 1.2 mM NaCl (so in the source), 5 mM MgCl2, 5 mM KCl, pH 7.4, 0.1% Tween-20, 1% sheared salmon sperm DNA, 300 uM dextran sulfate; 60 min; temperature not stated; settings: protein: commercial; tags: His tag; label: Qdot 655; 24 bp duplex of strand 1 5' end with handle; rest single-stranded aptamer

B1: P7-B1 annealed to DBCO-P7 handle on nanoparticle (mixed)
DNA 1: CAAGCAGAAGACGGCATACGAGATCATGCTTCCCCAGGGAGATGGTTTGCCGGTGGGCAGGTTTAGGGTCTGCTCGGGATTGCGGAGGAACATGCGTCGCAAACGTGTAGATCTCGGTGGTCGCCGTATCATT
DNA 2: ATCTCGTATGCCGTCTTCTGCTTG
modifications: handle 3' iSp9-DBCO coupled to azide-PEG
- apparent K (half saturation) [1]: 2.7 nM
- apparent K (half saturation) [2]: 5.2 nM

B2: Biotin-B1 (ssDNA)
DNA: CATGCTTCCCCAGGGAGATGGTTTGCCGGTGGGCAGGTTTAGGGTCTGCTCGGGATTGCGGAGGAACATGCGTCGCAAAC
modifications: 5' biotin
- apparent K (half saturation) [3]: 28 nM
- apparent K (half saturation) [4]: 9.9 nM
- apparent K (half saturation) [5]: 43 nM
- Kd [6]: 55 nM

B3: Her2 aptamer annealed to DBCO-P7 handle on nanoparticle (mixed)
DNA 1: CAAGCAGAAGACGGCATACGAGATTCTAAAAGGATTCTTCCCAAGGGGATCCAATTCAAACAGCGTGTAGATCTCGGTGGTCGCCGTATCATT
DNA 2: ATCTCGTATGCCGTCTTCTGCTTG
modifications: handle 3' iSp9-DBCO coupled to azide-PEG
- binding result [7]: no binding

B4: Biotin-H3T (ssDNA)
DNA: GTTTGCCGGTGGGCAGGTTTAGGGTCTGCTCGGGATTGCGGAGGAACATGCGTCGCAAAC
modifications: 5' biotin
- apparent K (half saturation) [8]: 30 nM

B5: VEGF aptamer annealed to DBCO-P7 handle on nanoparticle (mixed)
DNA 1: CAAGCAGAAGACGGCATACGAGATCCCGTCTTCCAGACAAGAGTGCAGGGGTGTAGATCTCGGTGGTCGCCGTATCATT
DNA 2: ATCTCGTATGCCGTCTTCTGCTTG
modifications: handle 3' iSp9-DBCO coupled to azide-PEG
- binding result [9]: no binding
- apparent K (half saturation) [10]: 5.5 nM

B6: DBCO-B1 directly conjugated to nanoparticle (ssDNA)
DNA: CAAGCAGAAGACGGCATACGAGATCATGCTTCCCCAGGGAGATGGTTTGCCGGTGGGCAGGTTTAGGGTCTGCTCGGGATTGCGGAGGAACATGCGTCGCAAACGTGTAGATCTCGGTGGTCGCCGTATCATT
modifications: 5' DBCO-C7 coupled to azide-PEG
- binding result [11]: binds

B7: H3T annealed to DBCO-P7 handle on nanoparticle (mixed)
DNA 1: CAAGCAGAAGACGGCATACGAGATGTTTGCCGGTGGGCAGGTTTAGGGTCTGCTCGGGATTGCGGAGGAACATGCGTCGCAAACGTGTAGATCTCGGTGGTCGCCGTATCATT
DNA 2: ATCTCGTATGCCGTCTTCTGCTTG
modifications: handle 3' iSp9-DBCO coupled to azide-PEG
- apparent K (half saturation) [1]: 12 nM

B8: P7-B1 annealed to DBCO-P7 handle on Qdot 655 (mixed)
DNA 1: CAAGCAGAAGACGGCATACGAGATCATGCTTCCCCAGGGAGATGGTTTGCCGGTGGGCAGGTTTAGGGTCTGCTCGGGATTGCGGAGGAACATGCGTCGCAAACGTGTAGATCTCGGTGGTCGCCGTATCATT
DNA 2: ATCTCGTATGCCGTCTTCTGCTTG
modifications: handle 3' iSp9-DBCO coupled to azide-PEG
- apparent K (half saturation) [12]: 55 nM
